T1: recombinant human soluble gpNMB (recombinant human gpNMB-FLAG-His) (human, UniProt Q14956 23-498)
T1 sequence: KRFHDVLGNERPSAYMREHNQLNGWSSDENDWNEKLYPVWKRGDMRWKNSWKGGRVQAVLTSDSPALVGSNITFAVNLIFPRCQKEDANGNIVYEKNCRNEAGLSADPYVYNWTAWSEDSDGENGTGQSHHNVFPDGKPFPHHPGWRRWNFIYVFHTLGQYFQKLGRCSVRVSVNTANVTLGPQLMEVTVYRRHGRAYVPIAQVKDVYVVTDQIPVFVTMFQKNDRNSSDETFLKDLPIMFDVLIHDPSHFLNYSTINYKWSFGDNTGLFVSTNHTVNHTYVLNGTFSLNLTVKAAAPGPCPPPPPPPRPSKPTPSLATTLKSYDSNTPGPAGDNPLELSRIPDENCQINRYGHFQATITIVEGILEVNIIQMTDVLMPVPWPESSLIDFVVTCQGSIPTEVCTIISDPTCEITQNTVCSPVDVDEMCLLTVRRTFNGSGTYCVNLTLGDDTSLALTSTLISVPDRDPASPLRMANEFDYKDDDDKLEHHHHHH


Legend:
[1] = biological target: T1, recombinant human soluble gpNMB …; assay: antigen ELISA
[2] = biological target: T1, recombinant human soluble gpNMB …; assay: antigen ELISA, vs hGPN18-2_H2L3

Binder | EC50 [1] | Relative binding activity [2]
hGPN18-2_H2L3 VL L31A (antibody, V domains shown) VH: QVQLVQSGPGLVQPTQTLTLTCSFSGFSLSTSVMGVGWIRQPSGKGLEWLADIWWDDDKDYNPSLKSRLTISKDTSKNQVVLTMTNMDTVDTATYYCARTYYSNYEYYGMDYWGQGTLVTVSS VL: DIVMTQSPDSLAVSLGERATINCRSSQTIIASNGNTYLEWYQQKPGQPPKLLIYKVSNRFSGVPDRFSGSGSGTDFTLTISSLQAEDVAVYYCFQGSHVPFTFGSGTKLEIKR | 20.7 nM | 0.41
hGPN18-2_H2L3 VL P100A (antibody, V domains shown) VH: QVQLVQSGPGLVQPTQTLTLTCSFSGFSLSTSVMGVGWIRQPSGKGLEWLADIWWDDDKDYNPSLKSRLTISKDTSKNQVVLTMTNMDTVDTATYYCARTYYSNYEYYGMDYWGQGTLVTVSS VL: DIVMTQSPDSLAVSLGERATINCRSSQTIILSNGNTYLEWYQQKPGQPPKLLIYKVSNRFSGVPDRFSGSGSGTDFTLTISSLQAEDVAVYYCFQGSHVAFTFGSGTKLEIKR | 4.22 nM | 0.84
hGPN18-2_H2L3 VL N35A (antibody, V domains shown) VH: QVQLVQSGPGLVQPTQTLTLTCSFSGFSLSTSVMGVGWIRQPSGKGLEWLADIWWDDDKDYNPSLKSRLTISKDTSKNQVVLTMTNMDTVDTATYYCARTYYSNYEYYGMDYWGQGTLVTVSS VL: DIVMTQSPDSLAVSLGERATINCRSSQTIILSNGATYLEWYQQKPGQPPKLLIYKVSNRFSGVPDRFSGSGSGTDFTLTISSLQAEDVAVYYCFQGSHVPFTFGSGTKLEIKR | 3.08 nM | 1.11
hGPN18-2_H2L3 VL N33A (antibody, V domains shown) VH: QVQLVQSGPGLVQPTQTLTLTCSFSGFSLSTSVMGVGWIRQPSGKGLEWLADIWWDDDKDYNPSLKSRLTISKDTSKNQVVLTMTNMDTVDTATYYCARTYYSNYEYYGMDYWGQGTLVTVSS VL: DIVMTQSPDSLAVSLGERATINCRSSQTIILSAGNTYLEWYQQKPGQPPKLLIYKVSNRFSGVPDRFSGSGSGTDFTLTISSLQAEDVAVYYCFQGSHVPFTFGSGTKLEIKR | 3.66 nM | 0.82
hGPN18-2_H2L3 VL Q27A (antibody, V domains shown) VH: QVQLVQSGPGLVQPTQTLTLTCSFSGFSLSTSVMGVGWIRQPSGKGLEWLADIWWDDDKDYNPSLKSRLTISKDTSKNQVVLTMTNMDTVDTATYYCARTYYSNYEYYGMDYWGQGTLVTVSS VL: DIVMTQSPDSLAVSLGERATINCRSSATIILSNGNTYLEWYQQKPGQPPKLLIYKVSNRFSGVPDRFSGSGSGTDFTLTISSLQAEDVAVYYCFQGSHVPFTFGSGTKLEIKR | 4 nM | 1.04
hGPN18-2_H2L3 VL N58A (antibody, V domains shown) VH: QVQLVQSGPGLVQPTQTLTLTCSFSGFSLSTSVMGVGWIRQPSGKGLEWLADIWWDDDKDYNPSLKSRLTISKDTSKNQVVLTMTNMDTVDTATYYCARTYYSNYEYYGMDYWGQGTLVTVSS VL: DIVMTQSPDSLAVSLGERATINCRSSQTIILSNGNTYLEWYQQKPGQPPKLLIYKVSARFSGVPDRFSGSGSGTDFTLTISSLQAEDVAVYYCFQGSHVPFTFGSGTKLEIKR | 2.86 nM | 1.04
hGPN18-2_H2L3 VL L38A (antibody, V domains shown) VH: QVQLVQSGPGLVQPTQTLTLTCSFSGFSLSTSVMGVGWIRQPSGKGLEWLADIWWDDDKDYNPSLKSRLTISKDTSKNQVVLTMTNMDTVDTATYYCARTYYSNYEYYGMDYWGQGTLVTVSS VL: DIVMTQSPDSLAVSLGERATINCRSSQTIILSNGNTYAEWYQQKPGQPPKLLIYKVSNRFSGVPDRFSGSGSGTDFTLTISSLQAEDVAVYYCFQGSHVPFTFGSGTKLEIKR | 4.15 nM | 1.06

Continued, values first:

EC50 [1] | Relative binding activity [2] | Binder
3.14 nM | 1.03 | hGPN18-2_H2L3 VL S26A (antibody, V domains shown) VH: QVQLVQSGPGLVQPTQTLTLTCSFSGFSLSTSVMGVGWIRQPSGKGLEWLADIWWDDDKDYNPSLKSRLTISKDTSKNQVVLTMTNMDTVDTATYYCARTYYSNYEYYGMDYWGQGTLVTVSS VL: DIVMTQSPDSLAVSLGERATINCRSAQTIILSNGNTYLEWYQQKPGQPPKLLIYKVSNRFSGVPDRFSGSGSGTDFTLTISSLQAEDVAVYYCFQGSHVPFTFGSGTKLEIKR
3.14 nM | 1.05 | hGPN18-2_H2L3 VL S57A (antibody, V domains shown) VH: QVQLVQSGPGLVQPTQTLTLTCSFSGFSLSTSVMGVGWIRQPSGKGLEWLADIWWDDDKDYNPSLKSRLTISKDTSKNQVVLTMTNMDTVDTATYYCARTYYSNYEYYGMDYWGQGTLVTVSS VL: DIVMTQSPDSLAVSLGERATINCRSSQTIILSNGNTYLEWYQQKPGQPPKLLIYKVANRFSGVPDRFSGSGSGTDFTLTISSLQAEDVAVYYCFQGSHVPFTFGSGTKLEIKR
5.49 nM | 0.79 | hGPN18-2_H2L3 VL Q95A (antibody, V domains shown) VH: QVQLVQSGPGLVQPTQTLTLTCSFSGFSLSTSVMGVGWIRQPSGKGLEWLADIWWDDDKDYNPSLKSRLTISKDTSKNQVVLTMTNMDTVDTATYYCARTYYSNYEYYGMDYWGQGTLVTVSS VL: DIVMTQSPDSLAVSLGERATINCRSSQTIILSNGNTYLEWYQQKPGQPPKLLIYKVSNRFSGVPDRFSGSGSGTDFTLTISSLQAEDVAVYYCFAGSHVPFTFGSGTKLEIKR
2.91 nM | 1.05 | hGPN18-2_H2L3 VL T28A (antibody, V domains shown) VH: QVQLVQSGPGLVQPTQTLTLTCSFSGFSLSTSVMGVGWIRQPSGKGLEWLADIWWDDDKDYNPSLKSRLTISKDTSKNQVVLTMTNMDTVDTATYYCARTYYSNYEYYGMDYWGQGTLVTVSS VL: DIVMTQSPDSLAVSLGERATINCRSSQAIILSNGNTYLEWYQQKPGQPPKLLIYKVSNRFSGVPDRFSGSGSGTDFTLTISSLQAEDVAVYYCFQGSHVPFTFGSGTKLEIKR
3.29 nM | 1.04 | hGPN18-2_H2L3 VL S97A (antibody, V domains shown) VH: QVQLVQSGPGLVQPTQTLTLTCSFSGFSLSTSVMGVGWIRQPSGKGLEWLADIWWDDDKDYNPSLKSRLTISKDTSKNQVVLTMTNMDTVDTATYYCARTYYSNYEYYGMDYWGQGTLVTVSS VL: DIVMTQSPDSLAVSLGERATINCRSSQTIILSNGNTYLEWYQQKPGQPPKLLIYKVSNRFSGVPDRFSGSGSGTDFTLTISSLQAEDVAVYYCFQGAHVPFTFGSGTKLEIKR
3.63 nM | 0.94 | hGPN18-2_H2L3 VL S61A (antibody, V domains shown) VH: QVQLVQSGPGLVQPTQTLTLTCSFSGFSLSTSVMGVGWIRQPSGKGLEWLADIWWDDDKDYNPSLKSRLTISKDTSKNQVVLTMTNMDTVDTATYYCARTYYSNYEYYGMDYWGQGTLVTVSS VL: DIVMTQSPDSLAVSLGERATINCRSSQTIILSNGNTYLEWYQQKPGQPPKLLIYKVSNRFAGVPDRFSGSGSGTDFTLTISSLQAEDVAVYYCFQGSHVPFTFGSGTKLEIKR
2.36 nM | 1.11 | hGPN18-2_H2L3 VL R59A (antibody, V domains shown) VH: QVQLVQSGPGLVQPTQTLTLTCSFSGFSLSTSVMGVGWIRQPSGKGLEWLADIWWDDDKDYNPSLKSRLTISKDTSKNQVVLTMTNMDTVDTATYYCARTYYSNYEYYGMDYWGQGTLVTVSS VL: DIVMTQSPDSLAVSLGERATINCRSSQTIILSNGNTYLEWYQQKPGQPPKLLIYKVSNAFSGVPDRFSGSGSGTDFTLTISSLQAEDVAVYYCFQGSHVPFTFGSGTKLEIKR
3.76 nM | 1.01 | hGPN18-2_H2L3 VL S25A (antibody, V domains shown) VH: QVQLVQSGPGLVQPTQTLTLTCSFSGFSLSTSVMGVGWIRQPSGKGLEWLADIWWDDDKDYNPSLKSRLTISKDTSKNQVVLTMTNMDTVDTATYYCARTYYSNYEYYGMDYWGQGTLVTVSS VL: DIVMTQSPDSLAVSLGERATINCRASQTIILSNGNTYLEWYQQKPGQPPKLLIYKVSNRFSGVPDRFSGSGSGTDFTLTISSLQAEDVAVYYCFQGSHVPFTFGSGTKLEIKR
8.67 nM | 0.92 | hGPN18-2_H2L3 VL S32A (antibody, V domains shown) VH: QVQLVQSGPGLVQPTQTLTLTCSFSGFSLSTSVMGVGWIRQPSGKGLEWLADIWWDDDKDYNPSLKSRLTISKDTSKNQVVLTMTNMDTVDTATYYCARTYYSNYEYYGMDYWGQGTLVTVSS VL: DIVMTQSPDSLAVSLGERATINCRSSQTIILANGNTYLEWYQQKPGQPPKLLIYKVSNRFSGVPDRFSGSGSGTDFTLTISSLQAEDVAVYYCFQGSHVPFTFGSGTKLEIKR
4.74 nM | 1.06 | hGPN18-2_H2L3 VL T36A (antibody, V domains shown) VH: QVQLVQSGPGLVQPTQTLTLTCSFSGFSLSTSVMGVGWIRQPSGKGLEWLADIWWDDDKDYNPSLKSRLTISKDTSKNQVVLTMTNMDTVDTATYYCARTYYSNYEYYGMDYWGQGTLVTVSS VL: DIVMTQSPDSLAVSLGERATINCRSSQTIILSNGNAYLEWYQQKPGQPPKLLIYKVSNRFSGVPDRFSGSGSGTDFTLTISSLQAEDVAVYYCFQGSHVPFTFGSGTKLEIKR
4.73 nM | 1.04 | hGPN18-2_H2L3 VL R24A (antibody, V domains shown) VH: QVQLVQSGPGLVQPTQTLTLTCSFSGFSLSTSVMGVGWIRQPSGKGLEWLADIWWDDDKDYNPSLKSRLTISKDTSKNQVVLTMTNMDTVDTATYYCARTYYSNYEYYGMDYWGQGTLVTVSS VL: DIVMTQSPDSLAVSLGERATINCASSQTIILSNGNTYLEWYQQKPGQPPKLLIYKVSNRFSGVPDRFSGSGSGTDFTLTISSLQAEDVAVYYCFQGSHVPFTFGSGTKLEIKR

Reference: patent publication EP4772193A1 (Teijin Pharma Limited, dated 2026)
